Data published in patent US20040248254A1.

Target: IL-1Rrp1 and mouse ACPL polypeptide coexpressed in transfected cells (IL-18 receptor) (mouse)
Test: cell-based or functional assay

IL-1Rrp1 and mouse ACPL polypeptide coexpressed in transfected cells (IL-18 receptor) (mouse), sequence (Q9Z2B1 15-614): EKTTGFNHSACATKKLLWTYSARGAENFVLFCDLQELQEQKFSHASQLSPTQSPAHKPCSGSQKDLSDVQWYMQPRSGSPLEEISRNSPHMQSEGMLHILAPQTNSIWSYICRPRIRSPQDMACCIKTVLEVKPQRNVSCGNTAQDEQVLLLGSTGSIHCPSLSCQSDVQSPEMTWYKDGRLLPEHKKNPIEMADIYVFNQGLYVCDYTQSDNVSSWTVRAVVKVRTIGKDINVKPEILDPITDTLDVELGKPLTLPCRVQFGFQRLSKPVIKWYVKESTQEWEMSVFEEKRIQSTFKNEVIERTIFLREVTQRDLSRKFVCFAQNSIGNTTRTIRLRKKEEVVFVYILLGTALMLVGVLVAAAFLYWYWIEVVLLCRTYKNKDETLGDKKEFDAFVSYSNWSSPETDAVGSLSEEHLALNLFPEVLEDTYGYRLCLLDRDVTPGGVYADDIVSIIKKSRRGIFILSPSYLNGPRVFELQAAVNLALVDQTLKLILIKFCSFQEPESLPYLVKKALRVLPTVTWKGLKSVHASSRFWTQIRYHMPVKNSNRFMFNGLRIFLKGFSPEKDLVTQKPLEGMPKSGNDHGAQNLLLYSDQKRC

murine IL-18 (PeproTech) (from UniProt P70380 36-192) (ligand)
induction of the NFkB-linked gene (NFkB-Luc luciferase reporter) in COS cells: 10 fold
induction of the NFkB-linked gene (NFkB-Luc luciferase reporter) in S49 cells: 300 fold
